Values of other authors in PMC8315802.
Like-named read-outs stand apart in the source and are kept apart here. Blank lines part the entries; values can stand above or below the substance they belong to.

Key:
[1] = target: actin filament (Oryctolagus cuniculus) (UniProt P68135)
[2] = target: actin filament (Oryctolagus cuniculus) (UniProt P68135); remark: listed apart in the source
[3] = target: actin filament (Oryctolagus cuniculus) (UniProt P68135); remark: listed apart in the source

Kd [1]: 0.9 µM
Substance: Rng2 1-189 (from UniProt O14188)

Kd [2]: 1.5 µM
Substance: utrophin CHD (from UniProt P46939)

Kd [3]: 4.7 µM
Substance: α-actinin CHD (from UniProt P05094)
